Measured values: PMC3253889 (Proteomics, 2011)

B1: LT-3F12 anti-LT-α monoclonal antibody purified from mouse ascites (antibody, V domains shown)
VH: QGQLQQSGAELMKPGASVKISCKATGYTFSSYWIEWVKQRPGHGLEWIGEISPGSGSTNYNEEFKGKATFTADKSSNTAYIQLSSLTSEDSAVYYCADGYHGYWGQGTTLTVSS
VL: DIVMSQSPSSLAVSVGEKVTMSCKSSQSLLYSTNQKNFLAWYQQKPGQSPKLLIYWASTRDSGVPDRFTGSGSGTDFTLTISSVKAEDLAVYYCQQYYSYPRTFGGGTKLEIK
B2: LT-3F12 rescued recombinant chimeric antibody (antibody, V domains shown)
VH: QGQLQQSGAELMKPGASVKISCKATGYTFSSYWIEWVKQRPGHGLEWIGEISPGSGSTNYNEEFKGKATFTADKSSNTAYIQLSSLTSEDSAVYYCADGYHGYWGQGTTLTVSS
VL: DIVMSQSPSSLAVSVGEKVTMSCKSSQSLLYSTNQKNFLAWYQQKPGQSPKLLIYWASTRDSGVPDRFTGSGSGTDFTLTISSVKAEDLAVYYCQQYYSYPRTFGGGTKLEIK

Legend:
[1] = target: T1, human lymphotoxin alpha homo-trimer (LT-α3) (human, UniProt P01374); test: SPR
[2] = target: T1, human lymphotoxin alpha homo-trimer …; test: ELISA
[3] = target: human LT-α3-biotin (human, UniProt P01374, biotin); test: ELISA
Sequence of human LT-α3-biotin (P01374 35-205): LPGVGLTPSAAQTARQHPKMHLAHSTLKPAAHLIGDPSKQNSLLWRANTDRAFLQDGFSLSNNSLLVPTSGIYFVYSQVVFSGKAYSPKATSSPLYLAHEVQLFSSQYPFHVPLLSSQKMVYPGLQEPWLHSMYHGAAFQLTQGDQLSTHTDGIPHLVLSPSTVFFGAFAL

T1 sequence (P01374 35-205): as above

Binder | Kd [1] [nM] | EC50 [2] [nM] | IC50 [3] [nM]
B1 | 0.3 | 0.018 | 47
B2 | 0.3 | 0.037 | –
